Results: patent publication US12319739 (F STAR DELTA, dated 2025)
Changes are numbered by the printed parent chain. Values belong to the binder of their own block, whether it stands above or below them.

Legend:
[1] = biological target: T1, hMSLN-His-Avi (human, UniProt Q13421 296-598, single biotin on the Avi tag in the biotinylated form); experiment: ratio of SPR KDs
T1 construct: Monomeric; also called human MSLN-His-Avi; hMSLN-Avi-His

[2] = biological target: T2, human CD137 on primary human CD8+ T cells (human, UniProt Q07011 24-255); experiment: cell-based or functional assay
T2 sequence (Q07011 24-255): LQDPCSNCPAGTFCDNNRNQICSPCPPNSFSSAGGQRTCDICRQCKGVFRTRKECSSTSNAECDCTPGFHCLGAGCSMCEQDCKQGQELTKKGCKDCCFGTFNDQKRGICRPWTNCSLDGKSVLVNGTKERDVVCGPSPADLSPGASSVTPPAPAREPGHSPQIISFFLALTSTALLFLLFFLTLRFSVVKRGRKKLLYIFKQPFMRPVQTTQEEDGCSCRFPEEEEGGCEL

[3] = biological target: T3, endogenous cell surface human MSLN (human, UniProt Q13421 296-598); experiment: flow cytometry, NCI-H226 cells
T3 construct: whole, on cells; The cell line is named under assay; also called cell-surface MSLN on NCI-H226, OVCAR-3 and AsPC-1 cells
T3 sequence (Q13421 other isoform, or with tags, fused parts or gaps limits assumed): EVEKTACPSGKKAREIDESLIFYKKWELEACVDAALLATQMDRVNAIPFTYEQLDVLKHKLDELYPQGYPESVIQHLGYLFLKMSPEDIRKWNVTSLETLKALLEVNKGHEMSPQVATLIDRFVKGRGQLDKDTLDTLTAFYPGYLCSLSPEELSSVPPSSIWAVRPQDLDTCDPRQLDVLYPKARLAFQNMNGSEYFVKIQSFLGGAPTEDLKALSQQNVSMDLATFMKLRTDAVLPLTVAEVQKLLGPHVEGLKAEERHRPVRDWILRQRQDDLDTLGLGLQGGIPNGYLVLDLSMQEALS

[4] = biological target: T4, cMSLN-His-Avi (cynomolgus, single biotin on the Avi tag in the biotinylated form); experiment: SPR, mAb2 captured on Protein G, MSLN in solution
T4 construct: Monomeric; also called cyno MSLN-His-Avi; cMSLN-Avi-His
T4 chain: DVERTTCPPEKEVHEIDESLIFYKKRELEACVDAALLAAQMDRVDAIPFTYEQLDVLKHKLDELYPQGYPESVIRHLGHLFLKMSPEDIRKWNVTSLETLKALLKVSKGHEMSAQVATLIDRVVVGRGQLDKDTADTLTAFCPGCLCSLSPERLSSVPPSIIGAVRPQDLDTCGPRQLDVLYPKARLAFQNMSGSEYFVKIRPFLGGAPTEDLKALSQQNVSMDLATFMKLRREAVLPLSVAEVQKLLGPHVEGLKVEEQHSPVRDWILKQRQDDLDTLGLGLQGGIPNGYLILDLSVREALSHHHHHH
Procedure: (§1) The association time was 5 min and the dissociation time was 5 min. Running buffer was HBS-EP (GE Healthcare BR100188). Flow cells were regenerated by injecting Glycine-HCl pH2.1 at a flow rate of 30 μl/min for 15 seconds. The data was analysed as described in Example 7.1.

[5] = biological target: T3, endogenous cell surface human MSLN; experiment: flow cytometry, NCI-H226 cells + 20 nM soluble MSLN
[6] = biological target: T1, hMSLN-His-Avi; experiment: SPR, hMSLN-His-Avi immobilised ~100 RU, mAb2 injected
[7] = biological target: T4, cMSLN-His-Avi; experiment: SPR, mAb2 captured on Protein G, cMSLN-His-Avi in solution
Procedure: as §1

[8] = biological target: T1, hMSLN-His-Avi; experiment: SPR, mAb2 captured on Protein G, hMSLN-His-Avi in solution
Procedure: as §1

[9] = biological target: T1, hMSLN-His-Avi; experiment: ratio of SPR KDs; remark: listed apart in the source
[10] = biological target: T2, human CD137 on primary human CD8+ T …; experiment: cell-based or functional assay; remark: listed apart in the source
[11] = biological target: T2, human CD137 on primary human CD8+ T …; experiment: cell-based or functional assay; remark: listed apart in the source
[12] = biological target: T2, human CD137 on primary human CD8+ T …; experiment: cell-based or functional assay; remark: listed apart in the source
[13] = biological target: T3, endogenous cell surface human MSLN; experiment: flow cytometry, AsPC-1 cells
[14] = biological target: T3, endogenous cell surface human MSLN; experiment: flow cytometry, OVCAR-3 cells
[15] = biological target: T1, hMSLN-His-Avi; experiment: SPR, hMSLN-His-Avi immobilised
[16] = biological target: T1, hMSLN-His-Avi; experiment: SPR, hMSLN-His-Avi in solution
[17] = biological target: T3, endogenous cell surface human MSLN; experiment: flow cytometry, NCI-H226 cells; remark: listed apart in the source
[18] = biological target: T4, cMSLN-His-Avi; experiment: SPR steady state, antigen immobilised ~50 RU
Procedure: The association time was 1000 sec to steady state and the dissociation time was 30 sec. Running buffer was HBS-EP (GE Healthcare BR100188). Flow cells were regenerated by injecting Glycine-HCl pH1.5 at a flow rate of 30 μl/min for 30 seconds. Data were analysed by double referencing against a flow cell which was intentionally left blank (no antigen coating). Steady state affinity model was used to analyse kinetic data using the BiaEvaluation software version 3.2.

[19] = biological target: T5, hCD137-mFc-Avi (human; mouse, UniProt Q07011 24-186, one biotin on each Avi tag in the biotinylated form); experiment: SPR, mAb2 captured by anti-human Fab, hCD137-mFc-Avi in solution
T5 construct: also called human dimeric CD137; human CD137-mFc-Avi
T5 sequence (Q07011 24-186): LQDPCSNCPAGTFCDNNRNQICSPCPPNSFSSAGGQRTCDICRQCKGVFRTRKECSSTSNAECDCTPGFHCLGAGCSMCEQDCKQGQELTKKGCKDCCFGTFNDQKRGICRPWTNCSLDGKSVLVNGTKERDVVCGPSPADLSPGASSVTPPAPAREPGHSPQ
Procedure: A Biacore CM5 chip was coated with anti-human Fab using a Human Fab Capture Kit (GE Healthcare 28958325) according to manufacturer's conditions, to a surface density of approximately 9000 RU. […] The association time was 5 min and the dissociation time was 5 min. Running buffer was HBS-EP. Flow cells were regenerated by injecting two repeat injections of 10 mM glycine-HCl at pH 2.1 at a flow rate of 30 μl/min for 30 seconds. Data analysis was performed as described in earlier examples (see e.g. Example 7.1).

[20] = biological target: T1, hMSLN-His-Avi; experiment: SPR, hMSLN-His-Avi immobilised ~100 RU, mAb2 injected; immobilised human MSLN (antigen capture), not MSLN in solution
Procedure: 7.1 Binding of CD137/MSLN mAb2 to Human MSLN Under Avid Conditions—Antigen Capture Method Binding of all mAb^2 to MSLN immobilised on a BIAcore chip was tested to determine the binding affinity to human MSLN under avid conditions, where a high concentration of immobilised antigen is available to allow the antibody to bind avidly. […] The association time was 5 min and the dissociation time was 10 min. Running buffer was HBS-EP (GE Healthcare BR100188). Flow cells were regenerated by injecting Glycine-HCl pH1.5 at a flow rate of 30 μl/min for 30 seconds. Data were analysed by double referencing against a flow cell which was intentionally left blank (no antigen coating). The binding kinetics were fitted with a 1:1 Langmuir model to generate binding association (k_a) and dissociation (k_d) rates. Equilibrium binding constants (K_D) were calculated by dividing the dissociation rate by the association rate for each sample. Data analysis was performed with BiaEvaluation software version 3.2.

T1 sequence (Q13421 other isoform, or with tags, fused parts or gaps): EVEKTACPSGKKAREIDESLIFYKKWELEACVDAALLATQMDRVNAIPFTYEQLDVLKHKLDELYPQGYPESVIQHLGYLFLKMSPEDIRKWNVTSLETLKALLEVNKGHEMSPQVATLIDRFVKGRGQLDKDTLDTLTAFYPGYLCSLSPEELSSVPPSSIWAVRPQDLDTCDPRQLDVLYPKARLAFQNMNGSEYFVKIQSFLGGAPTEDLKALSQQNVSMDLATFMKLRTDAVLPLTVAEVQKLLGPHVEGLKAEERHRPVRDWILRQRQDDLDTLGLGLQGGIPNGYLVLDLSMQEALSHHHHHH

KD ratio in solution/immobilised human MSLN [1]: 33 | Emax (IL-2 pg/ml), NCI-H226 co-culture, Donor A [2]: 1400 pg/mL | Emax (IL-2 pg/ml), NCI-H226 co-culture, Donor B [2]: 1940 pg/mL | IL-2 release EC50, NCI-H226 co-culture, Donor A [2]: 0.04 nM | IL-2 release EC50, NCI-H226 co-culture, Donor B [2]: 0.06 nM | EC50 [3]: 0.695 nM | Emax (MFI) [3]: 840000 MFI | fold less cross reactive compared to human MSLN [4]: 54 fold | EC50 [5]: 4.69 nM | Emax (MFI) [5]: 930000 MFI | Kd [6]: 0.13 nM | Kd [7]: 230 nM | Kd [8]: 4.27 nM
B1: FS22-172-003-AA/FS28-024-060 (bispecific antibody, human IgG1, kappa, L234A L235A, V domains shown)
VH: EVQLLESGGGLVQPGGSLRLSCAASGFTLSYSSMSWVRQAPGKGLEWVSFITPSTGYTHYADSVKGRFTISRDNSKNTLYLQMNSLRAEDTAVYYCARRALWFDYWGQGTLVTVSS
VL: EIVLTQSPGTLSLSPGERATLSCRASQSVSSSYLAWYQQKPGQAPRLLIYGASSRATGIPDRFSGSGSGTDFTLTISRLEPEDFAVYYCQQASSYPLTFGQGTKVEIKR
notes: IgG1 mAb^2 with LALA

ratio of KD in solution/immobilised [9]: 3 | KD ratio in solution/immobilised human MSLN [1]: 3 | fold change of IL-2 EC50 with soluble MSLN against none, NCI-H226 co-culture [10]: 3 fold | IL-2 release EC50, NCI-H226 co-culture, +2 nM sMSLN [11]: 0.139 nM | IL-2 release EC50, NCI-H226 co-culture, +20 nM sMSLN [11]: 0.353 nM | IL-2 release EC50, NCI-H226 co-culture, no sMSLN [11]: 0.117 nM | IFNγ production EC50 (96 h), AsPC-1 co-culture, Donor G [12]: 0.147 nM | IFNγ production EC50 (96 h), AsPC-1 co-culture, Donor H [12]: 0.164 nM | IFNγ production EC50 (96 h), AsPC-1 co-culture, Donor J [12]: 0.344 nM | IFNγ production EC50 (96 h), NCI-H226 co-culture, Donor G [12]: 0.0332 nM | IFNγ production EC50 (96 h), NCI-H226 co-culture, Donor H [12]: 0.0732 nM | IFNγ production EC50 (96 h), OVCAR-3 co-culture, Donor H [12]: 0.084 nM | IL-2 production EC50 (72 h), AsPC-1 co-culture, Donor C [12]: 0.778 nM | IL-2 production EC50 (72 h), AsPC-1 co-culture, Donor D [12]: 0.841 nM | IL-2 production EC50 (72 h), NCI-H226 co-culture, Donor C [12]: 0.111 nM | IL-2 production EC50 (72 h), NCI-H226 co-culture, Donor D [12]: 0.112 nM | IL-2 production EC50 (72 h), NCI-H226 co-culture, Donor E [12]: 0.0722 nM | IL-2 production EC50 (72 h), NCI-H226 co-culture, Donor F [12]: 0.0723 nM | IL-2 production EC50 (72 h), OVCAR-3 co-culture, Donor E [12]: 0.145 nM | IL-2 production EC50 (72 h), OVCAR-3 co-culture, Donor F [12]: 0.0693 nM | EC50 [13]: 0.293 nM | EC50 [14]: 0.306 nM | Kd [15]: 5.9 nM | Kd [16]: 18.2 nM | EC50 [17]: 0.304 nM | fold difference of binding to cMSLN against hMSLN [18]: ≤ 3 fold | Kd [8]: 18.2 nM | Kd [19]: 1.26 nM | Kd [20]: 5.9 nM
B2: FS22-172-003-AA/FS28-256-271 (bispecific antibody, human IgG1, kappa, L234A L235A, V domains shown)
VH: EVQLLESGGGLVQPGGSLRLSCAASGFTFTHTYMSWVRQAPGKGLEWVSAISPTYSTTNYADSVKGRFTISRDNNKNTLYLQMNSLRAEDTAVYYCARYNAYHAALDYWGQGTLVTVSS
VL: B1 VL with A92T, S93V, S94P, L97Y
notes: IgG1 mAb^2 with LALA; also called anti-human CD137/MSLN mAb^2
